Source: patent US20220119517A1 (NANJING SANHOME PHARMACEUTICAL, published 2022)

Experiments:
[1] = target: T1, human Claudin18.2 (CLDN18.2), full length, on cells (human); test: FACS on CHO-K1-CLDN18.2 cells, PE-anti human Fc, MFI
T1 construct: also called CLDN18.2-FL; HEK293-CLDN18.2 cells
Experimental: (§1) CHO-K1-CLDN18.2 cells and CHO-K1-CLDN18.1 cells (prepared in Example 5) were digested with gastric cancer cell digestion solution at 37° C. for 15 minutes, respectively; terminated with complete culture medium, centrifuged at 1000 rpm for 5 minutes, the supernatant was discarded; the cells were resuspended with 2% fetal bovine serum-PBS diluent, the cells were adjusted to 1×10⁶ cells/ml, 100 μl of cell suspension was added to each well of the 96-well U-shaped-bottom plate; 2% fetal bovine serum-PBS was used to dilute the humanized antibody and the control antibody to final concentrations of 10 μg/ml, 2 μg/ml, 0.4 μg/ml, 0.08 μg/ml and 0.016 μg/ml, respectively, mixed well with the cells in equal volume, incubated at 4° C. for 1 hour; centrifuged at 1000 rpm for 5 minutes, the supernatant was discarded; 200 μl Cell Stain Buffer (Biolegend) was added to each well to wash twice, centrifuged at 1000 rpm for 5 minutes at each time and the supernatant was discarded; 100 μl of PE-anti human Fc antibody (Biolegend) was added, incubated at 4° C. for 1 hour; washed with Cell Stain Buffer (Biolegend) twice, centrifuged at 1000 rpm for 5 minutes at each time and the supernatant was discarded. 300 μl Cell Stain Buffer was added to resuspend the cells, and detected by BD FACS Jazz flow cytometry analyzer.

[2] = target: T2, human Claudin18.1 (CLDN18.1), full length, on cells (human, UniProt P56856 1-261); test: FACS on CHO-K1-CLDN18.1 cells, PE-anti human Fc, MFI
T2 construct: HEK293-CLDN18.1 cells carry a fusion with green fluorescent protein (ZsGreen); CHO-K1-CLDN18.1 cells carry pcDNA3.1-CLDN18.1; The cell line is named under assay; also called CLDN18.1-FL; HEK293-CLDN18.1 cells
Experimental: as §1

[3] = target: T1, human Claudin18.2 (CLDN18.2), full …; test: FACS on NUGC4 cells
Source text: (§2) Human gastric cancer cells NUGC4 and stably transfected cells CHO-K1-CLDN18.1 (prepared in Example 5) were used respectively, to verify the specificity and affinity of the anti-CLDN18.2 antibodies above at the cellular level by FAGS technology. After antibody affinity maturation and screening in vitro, each antibody can bind to the CLDN18.2 target on NUGC4 cells, but not to CHO-K1-CLDN18.1 cells, as compared with the original 3CHI antibody.

[4] = target: T1, human Claudin18.2 (CLDN18.2), full …; test: cell-based or functional assay
[5] = target: T1, human Claudin18.2 (CLDN18.2), full …; test: cell-based or functional assay; remark: listed apart in the source
[6] = target: T2, human Claudin18.1 (CLDN18.1), full …; test: FACS on CHO-K1-CLDN18.1 cells
Source text: as §2

[7] = target: T1, human Claudin18.2 (CLDN18.2), full …; test: FACS on CHO-K1-CLDN18.2 cells, Graphpad fit
Experimental: as §1, with “analyzer. […]” for “analyzer.”

[8] = target: T1, human Claudin18.2 (CLDN18.2), full …; test: FACS on CHO-K1-CLDN18.2 cells, relative Kd from Graphpad fit
Experimental: as §1, with “analyzer. […]” for “analyzer.”

[9] = target: T3, antigen protein Claudin18.2-His (human, UniProt P56856-2 1-261, limits assumed); test: BLI (Fortebio Octet RED96), antibody on AHC sensor, Claudin18.2-His in solution, 37 °C
T3 construct: also called CLDN18.2 protein
Experimental: Next, antibodies were immobilized by the AHC sensor, and then combined with different concentrations of antigens, and determination of the affinity was performed according to the manual of Octet RED96.

[10] = target: T3, antigen protein Claudin18.2-His; test: BLI (Fortebio Octet RED96), antibody on AHC sensor, CLDN18.2 protein in solution, 37 °C
Experimental: Another method is to verify the affinity of the humanized antibody above at the protein level. The antibody was immobilized by the AHC sensor, and combined with different concentrations of antigens, and affinity determination was performed according to the manual of Octet RED96.

[11] = target: T1, human Claudin18.2 (CLDN18.2), full …; test: cellular ELISA on fixed HEK293-CLDN18.2 cells
Experimental: (§3) HEK293-CLDN18.1 and HEK293-CLDN18.2 cells were resuscitated two weeks in advance, cultured with DMEM complete culture medium containing 10% fetal bovine serum at 37° C., 5% CO₂. When the cells grew to 80%-90% confluency, they were digested with 0.5 mM EDTA-PBS (Sigma) at room temperature, centrifuged at 1000 rpm for 5 minutes, the supernatant was discarded. Cells were resuspended in DMEM complete culture medium, the cell concentration was adjusted to 6×10⁵ cells/ml. Cells were plated on 96-well cell plates (Corning) pre-coated with polylysine at 2.5 μg/well, 100 μl per well, incubated at 37° C., 5% CO₂ for 24 hours, making cells evenly and completely plated on the bottom of the well. The supernatant was aspirated, and the cells were fixed with 4% paraformaldehyde at room temperature for 20 minutes, washed 3 times with 200 μl PBS, 2 minutes at each time. The well plates were blocked with 200 μl of 3% BSA-PBS at 37° C. for 1 hour. Each chimeric antibody was diluted with 3% BSA-PBS to a concentration of 6 μg/ml, and diluted in a 6-fold gradient to a total of 7 concentrations. At the same time, IMAB362-similar-hG1 diluted in the same concentration gradient as the positive control, and human IgG1, kappa isotype control antibody (hereinafter referred to as Isotype, provided by CrownBio (Taicang) Co., Ltd.) as the negative control were added to HEK293-CLDN18.2 and HEK293-CLDN18.1 cell plates, respectively. The cells were incubated at 37° C. for 1 hour, washed 5 times with PBS. Incubation with HRP-anti human IgG (Jackson) diluted 1:10000 in blocking solution was performed at 37° C. for 1 hour followed by washing 5 times with PBS. 100 μl of TMB one-component color developing solution was added, protected from light at room temperature for 5-10 minutes, terminated with 50 μl of 2M sulfuric acid, OD450 was read on the microplate reader. Data processing: the original data was put into GraphPad 5.0 software for plotting and calculation.

[12] = target: T2, human Claudin18.1 (CLDN18.1), full …; test: cellular ELISA on fixed HEK293-CLDN18.1 cells, HRP-anti human IgG, OD450
Experimental: as §3

B1: Hu330-3 (antibody, V domains shown)
VH: EVQLLESGGGLVQPGGSLRLSCAASGFGFSDYGMAWVRQAPGKGLEWVSFISNSAYSIYYADTVTGRFTISRDNSKNTLYLQMNSLRAEDTAVYYCARLGRGNSFAYWGQGTLVTVSS
VL: DIVMTQSPDSLAVSLGERATINCKSSQSLLNSGNQKNYLTWYQQKPGQPPKLLIYWGSTRESGVPDRFSGSGSGTDFTLTISSLQAEDVAVYYCQNELFYPLTFGQGTKLEIK
notes: Humanized full antibody; also called humanized antibody Hu330-3
binding result [1]: binds | binding result [2]: no binding

B2: Hu330-5 (antibody, V domains shown)
VH: EVQLVESGGGLVQPGGSLRLSCAASGFGFSDYGMAWVRQAPGKGLEWVSFISNSAYSIYYADTVTGRFTISRDNAKNSLYLQMNSLRAEDTAVYYCARLGRGNSFAYWGQGTLVTVSS
VL: DIVMTQSPLSLPVTLGQPASISCKSSQSLLNSGNQKNYLTWYQQRPGQSPRLLIYWGSTRESGVPDRFSGSGSGTDFTLKISRVEAEDVGVYYCQNELFYPLTFGQGTKLEIK
notes: Humanized full antibody; also called humanized antibody Hu330-5
EC50 (read off the curve) [1]: ~0.2 µg/mL | binding result [2]: no binding

B3: Hu330-6 (antibody, V domains shown)
VH: EVQLLESGGGLVQPGGSLRLSCAASGFGFSDYGMAWVRQAPGKGLEWVSFISNSAYSIYYADTVTGRFTISRDNSKNTLYLQMNSLRAEDTAVYYCARLGRGNSFAYWGQGTLVTVSS
VL: DIVMTQSPLSLPVTLGQPASISCKSSQSLLNSGNQKNYLTWYQQRPGQSPRLLIYWGSTRESGVPDRFSGSGSGTDFTLKISRVEAEDVGVYYCQNELFYPLTFGQGTKLEIK
notes: Humanized full antibody; also called humanized antibody Hu330-6
EC50 (read off the curve) [1]: ~0.2 µg/mL | binding result [2]: no binding

B4: 330CHI (antibody, human IgG1, V domains shown)
VH: EVKLVESGGGLVQPGGSLKLSCAASGFGFSDYGMAWVRQAPRKGPEWVAFISNSAYSIYYADTVTGRFTISRENAKNTLYLEMSSLRSEDTAMYYCARLGRGNSFAYWGQGTLVTVSA
VL: DIVMTQSPSSLTVTAGEKVTMSCKSSQSLLNSGNQKNYLTWYQQKPGQPPKLLIYWGSTRESGVPDRFTGSGSGTDFTLTISSVQAEDLAVYYCQNELFYPLTFGAGTKLELK
notes: chimeric with the constant region of human IgG1; also called chimeric antibody 330CHI
MFI (CLDN18.2) [3]: 63700 MFI | in-vitro ADCC activity, Jurkat-CD16A/NF luciferase reporter, EC50 [4]: 0.22 nM | in-vitro ADCC activity, Jurkat-CD16A/NF luciferase reporter, Top [4]: 215000 | ADCC activity by luciferase labeling, EC50 [5]: 0.18 nM | ADCC activity by luciferase labeling, Top [5]: 64500 | MFI (CLDN18.1) [6]: 49 MFI | Bmax (MFI) [7]: 10800 MFI | Kd [8]: 1.6 nM | binding result [2]: no binding | Kd [9]: 0.84 nM | koff [9]: 0.000117 s⁻¹ | kon [9]: 139000 M⁻¹ s⁻¹ | Kd [10]: 0.249 nM | koff [10]: 3.23e-05 s⁻¹ | kon [10]: 130000 M⁻¹ s⁻¹

B5: 3CHI (antibody, V domains shown)
VH: EVKLVESGGGLVQPGGSLKLSCAASGFTFSDYGMAWVRQAPRKGPEWVAFISNLAYSIYYADTVTGRFTISRENAKNTLYLEMSSLRSEDTAMYYCARLGYGNSFAYWGQGTLVTVSA
VL: DIVMTQSPSSLTVTAGEKVTMSCKSSQSLLNSGNQKNYLTWYQQKPGQPPKLLIYWASTRESGVPDRFTGSGSGTDFTLTISSVQAEDLAVYYCQNDYSYPLTFGAGTKLELK
notes: Human-murine chimeric antibody with the constant region of human IgG1; also called chimeric antibody of S5H3B6; original 3CHI antibody
MFI (CLDN18.2) [3]: 2510 MFI | in-vitro ADCC activity, Jurkat-CD16A/NF luciferase reporter, EC50 [4]: 0.54 nM | in-vitro ADCC activity, Jurkat-CD16A/NF luciferase reporter, Top [4]: 212000 | MFI (CLDN18.1) [6]: 76 MFI | EC50 [11]: 0.08 nM | binding result [12]: no binding (tested: 6000 ng/ml)

B6: 1CHI (antibody, V domains shown)
VH: QIQLVQSGPELKKPGETVKISCKASGYTFTNYGMNWVKQAPGKGLKWMGWINTYTGEPTYADDFKGRFAFSLETSASTAYLQINNLKNEDMATYFCARDGQLGLRFAYWGQGTLVTVSA
VL: NIMMTQSPSSLAVSAGEKVTMSCKSSQSVLYSSNQKNYLAWYQQKPGQSPKLLIYWASTRESGVPDRFTGSGSGTDFTLTISSVQAEDLAVYYCHQYLSSRTFGGGTKLEIK
notes: Human-murine chimeric antibody with the constant region of human IgG1; also called chimeric antibody of B4B10G3
EC50 [11]: 0.55 nM | binding result [12]: no binding (tested: 6000 ng/ml)

B7: 18CHI (antibody, V domains shown)
VH: QVQLKESGPGLVAPSQSLSITCTVSGFSLTSYGVSWVRQPPGKGLEWLGVIWGDGSTNYHSALISRLSISKDNSKSQVFLKLNSLQTDDTATYYCAGGLRLWFAYWGQGTLVTVSA
VL: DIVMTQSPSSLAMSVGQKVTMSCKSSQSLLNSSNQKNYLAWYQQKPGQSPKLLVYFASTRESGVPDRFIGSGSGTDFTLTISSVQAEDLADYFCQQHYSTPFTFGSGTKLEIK
notes: Human-murine chimeric antibody with the constant region of human IgG1; also called chimeric antibody of C40B10D9
EC50 [11]: 1.75 nM | binding result [12]: no binding (tested: 6000 ng/ml)
